Eleven molecules from US20210179707A1 (published 2021) can be followed below.

The target of test [1] is T1, hPAR1 (Biotin) (human, biotin on the C-terminal lysine (GGGGSK-biotin, SKB)).
T1 construct: also called hPAR1 peptide
T1 peptide: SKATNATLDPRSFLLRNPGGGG
Put plainly: ELISA, hybridoma supernatant. For orientation: An ELISA detects its analyte on a solid surface through an enzyme-linked reagent.

For test [2], the target named is T2, hPAR3 (Biotin) (human, biotin on the C-terminal lysine (GGGGSK-biotin, SKB)).
T2 construct: also called hPAR3 peptide
T2 peptide: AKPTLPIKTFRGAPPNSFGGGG
Put plainly: ELISA, hybridoma supernatant.

The next test has as its target T3, hPAR2 (Biotin) (human, biotin on the C-terminal lysine (GGGGSK-biotin, SKB)).
T3 construct: also called hPAR2 peptide
T3 peptide: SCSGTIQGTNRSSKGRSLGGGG
Put plainly: ELISA, biotinylated peptides on streptavidin plate. The method, then:
(§1) Biotinylated peptides (hPAR1-4) were diluted in Wash buffer and allowed to bind to the blocked Streptavidin coated wells at 10 ug/ml (100 ul per well) for 1 hour at room temperature with gentle mixing. Wells were washed 3 times as above and purified anti-hPAR4 mAbs prepared at 10 ug/ml in Wash buffer were allowed to bind (100 ul/well) for 1 hour at room temperature with gentle mixing. The plate was washed 3 times as above and anti-mouse Fc conjugated to Alkaline phosphatase (AP) at 0.3 ug/ml (100 ul) was added to the wells for 1 hour as above. Wells were washed 3 times as above and developed with Alkaline Phosphatase substrate as described for the screening supernatant ELISA.
(§2) To further characterise the purified anti-hPAR4 mAb's the specificity of the mAbs to hPAR1, hPAR2, hPAR3 and hPAR4 biotinylated peptides was performed.

The target in test [3] is T1, hPAR1 (Biotin). Put plainly: ELISA, biotinylated peptides on streptavidin plate. On the procedure:
as §1, §2

For test [4], the target named is T2, hPAR3 (Biotin). Put plainly: ELISA, biotinylated peptides on streptavidin plate. The method, then: as §1, §2
The target in test [5] is T4, hPAR4 (Biotin) (human, biotin on the C-terminal lysine (GGGGSK-biotin, SKB)).
T4 construct: also called hPAR4 biotinylated peptide; Human PAR4 peptide (biotinylated)
T4 peptide: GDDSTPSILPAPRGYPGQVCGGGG
Put plainly: SPR (Biacore T200), biotinylated hPAR4 peptide on SA chip, mAb as analyte.

The target of test [6] is T5, human PAR4 on isolated human platelets (human, UniProt Q96RI0 18-385).
T5 construct: Native receptor of donor platelets (genotypes AA, AT, TT at residue 120); also called hPAR4
T5 sequence: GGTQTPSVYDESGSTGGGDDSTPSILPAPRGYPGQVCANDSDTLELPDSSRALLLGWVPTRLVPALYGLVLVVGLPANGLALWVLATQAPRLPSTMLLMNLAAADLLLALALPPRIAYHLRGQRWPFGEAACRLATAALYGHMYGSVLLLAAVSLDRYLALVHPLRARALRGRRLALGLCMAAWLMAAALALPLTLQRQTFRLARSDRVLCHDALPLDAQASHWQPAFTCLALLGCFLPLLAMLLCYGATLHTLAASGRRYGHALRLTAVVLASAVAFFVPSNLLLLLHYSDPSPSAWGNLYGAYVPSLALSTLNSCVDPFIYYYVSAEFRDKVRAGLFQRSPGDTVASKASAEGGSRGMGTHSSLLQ
Put plainly: flow cytometry on isolated human platelets. Background: In flow cytometry, cells or beads pass a laser one at a time.

Test [7] addresses T4, hPAR4 (Biotin). Put plainly: SPR (Bio-Rad ProteOn XPR36), biotinylated peptide captured, antibody as analyte.

What is called Kd is a measure of binding affinity in units of concentration. One may read the koff as the first-order rate constant of dissociation. A low value points to slow dissociation. The kon is a measure of how fast the partners come together. Higher therefore signals faster complex formation.

B1: 5F.RE6 (antibody, IgG2a, V domains shown)
VH: QVQLAESGGGVVQPGRSLRVSCAASGFTFSSYGMHWVRQAPGKGLEWVAVIWYDGTKKYYADSLKGRFTISRDNSKYTLYLQMNSLRADDTALYFCARKGARGITGLDYWGQGTLVTVSS
VL: DIQMTQSPSSLSASAGDRITITCRASQSISNYLNWYQQKPGKAPKLLIYAASSLQSGVPSRFSGSGSGTDFTLTISSLQPEDFASYYCRQNYNTPLTFGGGTKVEIK
notes: Human variable regions on mouse constant regions; isotype IgG2a/κ; Tested as parent hybridoma supernatant (MoB5F E6); also called 5F RE6.D3.E7; MoB5F E6
With B1, in the test with hPAR1 (Biotin) [1], the “Binding to PAR1 ratio” value was 1.1 ratio. Further, in the test with hPAR3 (Biotin) [2], the “Binding to PAR3 ratio” value is 0.8 ratio.

B2: 5H.RF2 (antibody, IgG2a, V domains shown)
VH: QVQLQQWGAGLLKPSETLALTCAVYGGSLSDYYWSWIRQPPGKGLEWIGEINHSGTTNYNPSLKSRVTISVDTSKKQFSLKLSSVTAADTAVYYCAIEYSNSRGYYYGMDVWGQGTTVTVSS
VL: DIQMTQSPSSLSASAGDRITITCRASQTISNYLNWYQQKPGKAPKLLIYAASSLQSGVPSRFSGSGSGTDFTLTISSLQPEDFASYYCRQNYNTPLTFGGGTKVEIK
notes: Human variable regions on mouse constant regions; isotype IgG2a/κ; also called 5H.RF2.A5b.D3.C2; MoB5H F2
In the case of B2, the binding result with hPAR2 (Biotin), with hPAR1 (Biotin) [3] and with hPAR3 (Biotin) [4] was “no binding (tested: 10 ug/ml)” each time. This molecule gave an equilibrium dissociation constant (Kd) with hPAR4 (Biotin) [5] of 0.61 nM. The molecule further yielded an off-rate (koff) with hPAR4 (Biotin) [5] of 0.00111 s⁻¹. Also, the association rate constant (kon) with hPAR4 (Biotin) [5] was 1.84e+06 M⁻¹ s⁻¹. Further, the “Binding to PAR1 ratio” value in the test with hPAR1 (Biotin) [1] was determined as 1 ratio. Besides, the “Binding to PAR3 ratio” value with hPAR3 (Biotin) [2] came to 0.9 ratio.

B3: 5H.RA3 (antibody, IgG2a, V domains shown)
VH: QVQLVESGGGVVQPGRSLRVSCAASGFTFSSYGMLWVRQAPGKGLEWVAVIWYDGTKKYYADSLKGRFTISRDNSKYTLYLQMNSLRADDTALYFCARKGARGITGLDYWGQGTLVTVSS
VL: not shown
notes: Human variable regions on mouse constant regions; isotype IgG2a/κ; also called 5H.RA3.D3b.A2b; MoB5H A3
Turning to B3, in test [6], the “Binding to human platelets, FACS GMFI at 10 ug/ml (over isotype control)” value (“Binding … (over isotype control)” for short) is 100 GMFI.

B4: 5I.RG1 (antibody, IgG3, V domains shown)
VH: QVQLQQWGAGLLKPSETLSLACAISSGSFSTYFWRWIRQPPGKGLEWIGEIIHTGSTTYNPSLKSRVTISVDTSKNQLSLKLSSVTAADTAVYYCAFEYSSSGGYYYGMDVWGQGTTVTVSS
VL: DIQMTQSPSSLSASVGDRVTITCRASQSISSYLNWYQQIPGKAPNLLIYAASSLRSGVPSRFSGSGSGTDFTLTISSLQPEDFATYYCQQTYSTPLTFGGGTKVEIK
notes: Human variable regions on mouse constant regions; isotype IgG3/κ; also called 5I.RG1.D6.C1b; 51.RG1
Turning to B4, the binding result in the test with hPAR2 (Biotin) is recorded as “no binding (tested: 10 ug/ml)”. The binding result with hPAR1 (Biotin) [3] is listed as “no binding (tested: 10 ug/ml)”. For the same molecule, the binding result with hPAR3 (Biotin) [4] is on record as “no binding (tested: 10 ug/ml)”. For the same molecule, in the test with hPAR4 (Biotin) [5], the Kd came to 0.36 nM, the koff is 0.000667 s⁻¹ and the kon amounted to 1.85e+06 M⁻¹ s⁻¹. In addition, the “Binding to PAR1 ratio” value in the test with hPAR1 (Biotin) [1] was 1 ratio. Moreover, the “Binding to PAR3 ratio” value with hPAR3 (Biotin) [2] was determined as 1 ratio.

B5: 5F.RF3 (antibody, IgG2b, V domains shown)
VH: QVQLVQSGAEVKKPGASVKVSCKTSAYTFTNYGISWVRQAPGQGLEWMGWISPYNGNTNYAQKLQGRVTMTTDTSTRTAYMELRSLRSDDTAVYYCAREYNRSSRGRYYYYGMDVWGQGTTVTVSS
VL: EIVLTQSPGTLSLSPGERATLSCRASQSVSSNYLAWYQKKPGQAPRLLISGASSRATGIPDRFSGSGSGTDFTLTISRLEPEDFAVYYCQQYGSSPWTFGQGTKVEIK
notes: Human variable regions on mouse constant regions; isotype IgG2b/κ; also called 5F.RF3.A7b.C9; MoB5F-RF3.A7b.C9
As for B5, the “Binding … (over isotype control)” value in test [6] is 53 GMFI.

B6: 5D.RH4 (antibody, IgG2a, V domains shown)
VH: QIQLVESGGGVVQPGRSLRLSCAASGFTFSSDGMHWVRQAPGKGLEWVAVIWFDGRNKYYLDSVKGRFTISRDNSKNTLYLQMNSLRAEDTAVYYCARESSISTRPPFDYWGQGTLVTVSS
VL: not shown
notes: Human variable regions on mouse constant regions; isotype IgG2a/κ; also called 5D.RH4.G7.E6.C7b.G7
B6: the “Binding … (over isotype control)” value in test [6] is 33 GMFI.

B7: 5H.RD2 (antibody, IgG1, V domains shown)
VH: EVQLVESGGDLVKPGGSLRLSCSASGFTFFNTWMNWVRQAPGKGLEWVGRVKSKNDGGTKDYAAPVTGRFTISRDDSKDTLYLQMNSLKTEDTAVYYCTTDPHYDFWSAYWGQGTLVTVSS
VL: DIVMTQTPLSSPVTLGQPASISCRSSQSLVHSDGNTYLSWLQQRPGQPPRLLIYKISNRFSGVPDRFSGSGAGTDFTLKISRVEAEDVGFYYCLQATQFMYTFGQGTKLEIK
notes: Human variable regions on mouse constant regions; isotype IgG1/κ; also called 5H.RD2.A7b; MoB5H-RD2.A7b
Turning to B7, in the test with hPAR1 (Biotin) [1], the “Binding to PAR1 ratio” value was determined as 1 ratio. Further, in the test with hPAR3 (Biotin) [2], the “Binding to PAR3 ratio” value is 0.9 ratio.

B8: 5H.RH4 (antibody, IgG2b, V domains shown)
VH: QVQLQQWGAGLLKPSETLSLTCAVYGGSFSNYYWSWIHQPPGKGLEWIGEINHSGSTNYNPSLKSRVTISVDTSKKQFSLNLSSVTAADTAVYYCKVEHSSSSGHYYYGMDVWGQGTTVTVSS
VL: DIQMTQSPSSLSASVGDRVTITCRASQTISYYLNWYQQKPGKAPKLLIYAASRLQSGVPSRFSGSGSGTDFTLTISSLQPEDFTTYYCQQSYSTPLTFGGGTKVGIK
notes: Human variable regions on mouse constant regions; isotype IgG2b/κ; Tested as parent hybridoma supernatant (MoB5H H4); also called 5H RH4.C8b.A3.A6; MoB5H H4
Consider B8, for which, in the test with hPAR1 (Biotin) [1], the “Binding to PAR1 ratio” value came to 1 ratio. In addition, in the test with hPAR3 (Biotin) [2], the “Binding to PAR3 ratio” value came to 0.9 ratio.

B9: 5A.RC3 (antibody, IgG2a, V domains shown)
VH: QVQLVESGGGVVQPGRSLRLSCAASGFTLSNYGMHWVRQAPGKGLEWVSVIWYDGSNKHYADSVKGRFTISRDNSKNTLYLQMNSLRAEDTAVYYCARESIVEVLPPFDYWGQGTLVTVSS
VL: KIVLTQSPGTLSLSPGERVTLSCRASQRVRNNYLAWFQQKPGQAPRLFIYGASSRATGIPDRFSGSGSGTDFIFTISRLEPEDFAVYYCQQYGNSYTFGQGTKLEIK
notes: Human variable regions on mouse constant regions (HumAb mice); isotype IgG2a/κ; also called 5A.RC3.F10b.H4b; MoB5A-RC3.F10b.H4b
B9: the Kd with hPAR4 (Biotin) [7] is roughly 0.4 nM; with hPAR4 (Biotin) [5], 0.32 nM. For the same molecule, the binding result in the test with hPAR2 (Biotin), with hPAR1 (Biotin) [3] and in the test with hPAR3 (Biotin) [4] was “no binding (tested: 10 ug/ml)” throughout. In addition, the koff with hPAR4 (Biotin) [5] was determined as 0.000417 s⁻¹. The molecule further had a kon with hPAR4 (Biotin) [5] of 1.32e+06 M⁻¹ s⁻¹. In addition, the “Binding … (over isotype control)” value in test [6] turned out to be 39 GMFI.

B10: 5G.RG1 (antibody, IgG1, V domains shown)
VH: QVQLVESGGGVVQPGRSLRLSCVASGFTLSSYGMHWVRQAPGKGLEWVAVIWYDGSSKYYTDSVKGRFDISRDNSKNTLYLQMNILRAEDTAVYYCARETILIGGVPFDYWGQGTLVTVSS
VL: EIVLTQSPGTLSLSPGERATLSCGASQSIRSNYLAWYQQKPGQAPRLLIYGASSRATGTPDRFSGSGSGTDFTLTITRLEPEDFALYYCQQYGRSYTFGQGTKLEIK
notes: Human variable regions on mouse constant regions; isotype IgG1/κ; Tested as parent hybridoma supernatant (MoB5G G1); also called 5G RG1.D3.C2b; MoB5G G1
Regarding B10, in the test with hPAR1 (Biotin) [1], the “Binding to PAR1 ratio” value amounted to 1.1 ratio. The “Binding to PAR3 ratio” value with hPAR3 (Biotin) [2] is 0.8 ratio.

B11: 5G.RA1 (antibody, IgG2a, V domains shown)
VH: QVQLVESGGGVVQPGRSLRLSCAASGFTFSSYGMHWVRQAPGKGLEWVAVIWYDGSNKYYADSVKGRFTISRDNSKNTLYLQMNSLRAEDTAVYYCARETALVRGVPFDYWGQGTLVTVSS
VL: not shown
notes: Human variable regions on mouse constant regions; isotype IgG2a/κ; also called 5G.RA1.E10.G3; MoB5G A1
Take B11: the “Binding … (over isotype control)” value in test [6] is 25 GMFI.
